Here are results for 2 molecules from PMC9602545, “TcMYB8, a R3-MYB Transcription Factor, Positively Regulates Pyrethrin Biosynthesis in Tanacetum cinerariifolium”.

This data set has as its target TcMYB8 (Tanacetum cinerariifolium (clone W99), UniProt A0A9Y1M041 1-217). The experiment in a line: EMSA; labeled probe 10 uM; EMSA with 10 uM FAM probe; buffer, salt, pH and temperature not stated. Particulars: protein: recombinant; tags: 6xHN, C-terminal (pET6HN-C vector); label: 5' 6-FAM; blunt. (In EMSA bound probe runs differently from free probe, usually more slowly.)

TcMYB8, sequence (A0A9Y1M041 entry or part of it): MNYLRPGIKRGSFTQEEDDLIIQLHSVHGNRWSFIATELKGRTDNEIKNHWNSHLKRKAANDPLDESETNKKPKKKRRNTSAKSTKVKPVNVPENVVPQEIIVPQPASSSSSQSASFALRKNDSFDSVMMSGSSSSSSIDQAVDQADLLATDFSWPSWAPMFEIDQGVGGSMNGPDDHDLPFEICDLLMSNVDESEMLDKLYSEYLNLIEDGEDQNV

B1: Probe_proCHS (dsDNA)
DNA 1: TTTGAAGGCAAGTGATGTAAAGTGCTAAGTGTTAAGTCAATGATTATAT
DNA 2: ATATAATCATTGACTTAACACTTAGCACTTTACATCACTTGCCTTCAAA
B1: the binding result is given as “binds”.

B2: Probe_proGLIP (dsDNA)
DNA 1: CCTGACAGTTGCTATTTAGTGCTGTCTACTTGTTTAGTTGTGGAGCAAATGACT
DNA 2: AGTCATTTGCTCCACAACTAAACAAGTAGACAGCACTAAATAGCAACTGTCAGG
For the molecule B2, the binding result is reported as “binds”.
